Data on 2 substances can be found in PMC9758051.

The target of assay [1] is turkey β1-adrenergic receptor, engineered thermostabilised construct (modified β44-m23) (turkey (M. gallopavo)) (UniProt P07700). The experiment in a line: native MS; tβ1AR 5 μM with mini-Gs 6 μM, orciprenaline 2 at 250 μM.
Assay [2] has the same target. Put plainly: native MS; tβ1AR 5 μM with mini-Gs 6 μM, isoprenaline derivative 5 at 250 μM.
For assay [3] the target is unchanged. Put plainly: native MS; tβ1AR 5 μM with mini-Gs 6 μM, 1-phenyl-2[(propan-2-yl)amino]ethan-1-ol 3 at 250 μM.
The target in assay [4] is tβ1AR variant with alanine mutations on TM5 (E233A and E236A) (turkey (M. gallopavo)) (UniProt P07700). The experiment in a line: native MS; tβ1AR with mini-Gα at 1:1.2 molar ratio, 4 °C, at least 20 min, coupling buffer (10 mM HEPES, 10 mM Tris-HCl pH 7.4, 200 mM NaCl, 1 mM MgCl2, 5 mM GDP, 0.05% DDM) with isoprenaline 1 at 25 μM.
The target in another assay is endogenous metal (Zn2+). The experiment in a line: mass spectrometry (MS) of receptor-mini-Gs complex. The settings on record: metal-binding read on the tβ1AR-mini-Gs complex; mean ± s.d. from three independent experiments; read off a plot.

Consider “mini-Gs construct R414, engineered minimal Gα subunit (engineered Gαs)”, for which the percent reduction of mini-Gs coupling against isoprenaline 1 in assay [1] is 60%. The percent attenuation of mini-Gs coupling against isoprenaline 1 in assay [2] amounted to 75%; in assay [3], 90%. For the same substance, the percent attenuation of coupling against wild-type tβ1AR in assay [4] is 21.2%.
In turn, “turkey β1-adrenergic receptor, engineered thermostabilised construct (modified β44-m23) (from UniProt P07700) E285A; H286A” returned an other: inhibition of metal-binding (%) with endogenous metal (Zn2+) of 11%.
